# Measured values reported in the supplement of paper PMC10065799, “High-throughput profiling of sequence recognition by tyrosine kinases and SH2 domains using bacterial peptide display” (eLife, 2023).
# Target: FGFR3 (UniProt P22607)
# Test: phosphorylation enrichment, bacterial display (enrichment ratio); higher = better substrate or ligand; peptides without Tyr show the background
# 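Also: 11-residue human phosphosite peptides and single-mutation variants displayed on the E. coli surface, counted by deep sequencing, each peptide's frequency after selection divided by its frequency in the unselected input library; frequency after pTyr selection over input frequency; kinase dosed for 20-30% of maximal phosphorylation in three min.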
# FGFR3, sequence (P22607 whole entry, looked up): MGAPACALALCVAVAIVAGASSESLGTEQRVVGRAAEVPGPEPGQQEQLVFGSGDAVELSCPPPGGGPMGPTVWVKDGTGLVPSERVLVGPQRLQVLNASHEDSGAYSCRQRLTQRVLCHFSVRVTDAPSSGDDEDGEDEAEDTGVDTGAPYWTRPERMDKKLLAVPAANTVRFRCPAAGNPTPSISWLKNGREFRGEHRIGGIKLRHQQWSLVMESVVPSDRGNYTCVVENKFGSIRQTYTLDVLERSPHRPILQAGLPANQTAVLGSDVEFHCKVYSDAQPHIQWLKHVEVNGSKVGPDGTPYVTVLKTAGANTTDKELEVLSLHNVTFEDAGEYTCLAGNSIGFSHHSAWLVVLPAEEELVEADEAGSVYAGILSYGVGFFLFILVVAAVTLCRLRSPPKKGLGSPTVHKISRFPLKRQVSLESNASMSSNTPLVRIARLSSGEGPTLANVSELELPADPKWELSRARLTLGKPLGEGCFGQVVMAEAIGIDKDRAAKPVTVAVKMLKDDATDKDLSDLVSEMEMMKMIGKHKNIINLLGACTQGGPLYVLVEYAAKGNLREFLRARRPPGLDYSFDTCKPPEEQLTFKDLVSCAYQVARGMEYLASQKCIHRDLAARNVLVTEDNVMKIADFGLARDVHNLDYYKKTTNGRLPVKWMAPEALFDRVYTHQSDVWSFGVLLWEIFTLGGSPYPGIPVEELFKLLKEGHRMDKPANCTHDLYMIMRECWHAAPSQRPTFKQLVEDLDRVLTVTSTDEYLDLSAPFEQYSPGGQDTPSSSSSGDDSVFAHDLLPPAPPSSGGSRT
row,Sequence,phosphorylation enrichment
1,GKSHIYFWTLD [EML2_Y230_E235D],1.1
2,KWTVDYLGQVG [TYW5_Y48_S50G],0.602
3,LNCIYYKDQTG [RS1_Y166_W163C],4.51
4,GMSQAYSFSQR [DES_Y5_S7F],0.481
5,ADSLRYIYPKL [EIF2B3_Y92],0.463
6,FQLENYCNGGG [INS_Y108_YF],0.72
7,GIKAAYEAELG [LMNA_Y81],0.496
8,FSMGCYEIFLG [HMGCL_Y198_S201Y_YF],1.35
9,TYEPNYGTVKQ [RAPGEF6_Y1447],0.659
10,MDNQEYKDAYK [BRDT_Y331],0.652
11,DYSLKYPTDIP [APC_Y1183_A1184P],0.866
12,AFEQQYSPIPR [NOX1_Y373],0.769
13,KELANYYKLHH [AK7_Y390],1.83
14,SVDRDYVLKSA [HTATIP2_Y111_R106S],0.54
15,NNPAYYVLEGV [INPPL1_Y987],13.1
16,SSDPDYRAAVD [GLB1_Y154_L155R],0.635
17,TNIKRYHIAKV [HARS1_Y150],0.328

row,Sequence,phosphorylation enrichment
1,MKKKIYAMGGG [GAN_Y424],0.341
2,VQDPAYLRDID [OPRK1_Y369],0.708
3,DCAAIYGNEPD [AKR1A1_Y50_E55D],0.957
4,NWGSPYKSDGC [ZNF347_Y261_N264D],0.522
5,SRNKPYISWPS [CDC42BPB_Y1638],0.511
6,QKDIFYGLRSL [IGSF10_Y126_T124I],0.73
7,LENSTYQYICV [CRB1_Y760_R764C],8.35
8,ASRKYYAMKIL [AKT3_Y174_G171R],0.535
9,VLTPKYRGGGG [HBA1_Y141_S139P],0.413
10,SLNEEYTKNKT [MSH2_Y563],0.397
11,DWRQEYVLNES [TGM1_Y267],0.909
12,EAESWYQTKYE [KRT75_Y342],0.752
13,HNMPIYEGYAL [ACTA1_Y168_V165M],0.654
14,FFNSEYGELSE [FLT4_Y1337_YF],0.728
15,QFPDIYAREEV [CRX_Y67_V66I_YF],1.26
16,NTADYYDLYGG [PTPN11_Y63_G60A],15.3

# System: Fer (mouse)
# Test: as above
row,Sequence,phosphorylation enrichment
1,GKSHIYFWTLD [EML2_Y230_E235D],0.508
2,KWTVDYLGQVG [TYW5_Y48_S50G],0.405
3,LNCIYYKDQTG [RS1_Y166_W163C],1.55
4,GMSQAYSFSQR [DES_Y5_S7F],0.338
5,ADSLRYIYPKL [EIF2B3_Y92],0.339
6,FQLENYCNGGG [INS_Y108_YF],0.364
7,GIKAAYEAELG [LMNA_Y81],0.446
8,FSMGCYEIFLG [HMGCL_Y198_S201Y_YF],3.74
9,TYEPNYGTVKQ [RAPGEF6_Y1447],2.44
10,MDNQEYKDAYK [BRDT_Y331],0.456
11,DYSLKYPTDIP [APC_Y1183_A1184P],0.476
12,AFEQQYSPIPR [NOX1_Y373],0.451
13,KELANYYKLHH [AK7_Y390],0.383
14,SVDRDYVLKSA [HTATIP2_Y111_R106S],0.403
15,NNPAYYVLEGV [INPPL1_Y987],0.525
16,SSDPDYRAAVD [GLB1_Y154_L155R],0.507
17,TNIKRYHIAKV [HARS1_Y150],0.278

row,Sequence,phosphorylation enrichment
1,MKKKIYAMGGG [GAN_Y424],0.389
2,VQDPAYLRDID [OPRK1_Y369],0.465
3,DCAAIYGNEPD [AKR1A1_Y50_E55D],0.672
4,NWGSPYKSDGC [ZNF347_Y261_N264D],0.394
5,SRNKPYISWPS [CDC42BPB_Y1638],0.345
6,QKDIFYGLRSL [IGSF10_Y126_T124I],0.405
7,LENSTYQYICV [CRB1_Y760_R764C],15.4
8,ASRKYYAMKIL [AKT3_Y174_G171R],0.441
9,VLTPKYRGGGG [HBA1_Y141_S139P],0.364
10,SLNEEYTKNKT [MSH2_Y563],0.379
11,DWRQEYVLNES [TGM1_Y267],0.558
12,EAESWYQTKYE [KRT75_Y342],0.505
13,HNMPIYEGYAL [ACTA1_Y168_V165M],17.4
14,FFNSEYGELSE [FLT4_Y1337_YF],0.533
15,QFPDIYAREEV [CRX_Y67_V66I_YF],0.707
16,NTADYYDLYGG [PTPN11_Y63_G60A],1.59

# Target: Fes (UniProt P07332)
# Test: as above
# Fes, sequence (P07332 whole entry, looked up): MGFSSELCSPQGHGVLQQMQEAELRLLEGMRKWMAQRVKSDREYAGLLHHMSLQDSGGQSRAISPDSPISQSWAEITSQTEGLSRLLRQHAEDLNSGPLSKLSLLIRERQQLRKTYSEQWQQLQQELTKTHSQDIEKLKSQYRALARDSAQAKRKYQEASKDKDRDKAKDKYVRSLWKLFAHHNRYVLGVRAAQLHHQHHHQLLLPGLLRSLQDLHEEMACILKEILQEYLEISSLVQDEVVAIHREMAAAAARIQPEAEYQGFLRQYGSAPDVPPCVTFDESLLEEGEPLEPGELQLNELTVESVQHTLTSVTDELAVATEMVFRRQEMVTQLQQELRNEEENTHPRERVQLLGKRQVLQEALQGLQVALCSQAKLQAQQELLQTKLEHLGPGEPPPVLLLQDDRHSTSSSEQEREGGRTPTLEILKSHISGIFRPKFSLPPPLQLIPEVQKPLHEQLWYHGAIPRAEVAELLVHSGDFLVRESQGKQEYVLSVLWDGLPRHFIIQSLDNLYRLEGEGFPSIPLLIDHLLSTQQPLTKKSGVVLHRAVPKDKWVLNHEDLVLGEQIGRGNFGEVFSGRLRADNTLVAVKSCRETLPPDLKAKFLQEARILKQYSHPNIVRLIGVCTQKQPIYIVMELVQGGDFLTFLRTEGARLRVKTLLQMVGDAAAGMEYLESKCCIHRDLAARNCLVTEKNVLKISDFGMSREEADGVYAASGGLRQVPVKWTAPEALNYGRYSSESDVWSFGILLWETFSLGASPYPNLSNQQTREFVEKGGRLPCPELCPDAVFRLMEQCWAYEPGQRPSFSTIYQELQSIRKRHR
row,Sequence,phosphorylation enrichment
1,GKSHIYFWTLD [EML2_Y230_E235D],1.21
2,KWTVDYLGQVG [TYW5_Y48_S50G],0.774
3,LNCIYYKDQTG [RS1_Y166_W163C],3.26
4,GMSQAYSFSQR [DES_Y5_S7F],0.755
5,ADSLRYIYPKL [EIF2B3_Y92],0.602
6,FQLENYCNGGG [INS_Y108_YF],1.41
7,GIKAAYEAELG [LMNA_Y81],0.797
8,FSMGCYEIFLG [HMGCL_Y198_S201Y_YF],1.8
9,TYEPNYGTVKQ [RAPGEF6_Y1447],0.667
10,MDNQEYKDAYK [BRDT_Y331],1.12
11,DYSLKYPTDIP [APC_Y1183_A1184P],0.844
12,AFEQQYSPIPR [NOX1_Y373],0.707
13,KELANYYKLHH [AK7_Y390],0.685
14,SVDRDYVLKSA [HTATIP2_Y111_R106S],0.755
15,NNPAYYVLEGV [INPPL1_Y987],0.997
16,SSDPDYRAAVD [GLB1_Y154_L155R],0.988
17,TNIKRYHIAKV [HARS1_Y150],0.553

row,Sequence,phosphorylation enrichment
1,MKKKIYAMGGG [GAN_Y424],0.465
2,VQDPAYLRDID [OPRK1_Y369],1.13
3,DCAAIYGNEPD [AKR1A1_Y50_E55D],1.64
4,NWGSPYKSDGC [ZNF347_Y261_N264D],0.864
5,SRNKPYISWPS [CDC42BPB_Y1638],0.612
6,QKDIFYGLRSL [IGSF10_Y126_T124I],1.29
7,LENSTYQYICV [CRB1_Y760_R764C],2.41
8,ASRKYYAMKIL [AKT3_Y174_G171R],0.634
9,VLTPKYRGGGG [HBA1_Y141_S139P],0.464
10,SLNEEYTKNKT [MSH2_Y563],0.786
11,DWRQEYVLNES [TGM1_Y267],1.15
12,EAESWYQTKYE [KRT75_Y342],1.21
13,HNMPIYEGYAL [ACTA1_Y168_V165M],2.64
14,FFNSEYGELSE [FLT4_Y1337_YF],1.24
15,QFPDIYAREEV [CRX_Y67_V66I_YF],1.91
16,NTADYYDLYGG [PTPN11_Y63_G60A],1.47

# Target: Fyn (UniProt P06241)
# Test: as above
# Fyn, sequence (P06241 whole entry, looked up): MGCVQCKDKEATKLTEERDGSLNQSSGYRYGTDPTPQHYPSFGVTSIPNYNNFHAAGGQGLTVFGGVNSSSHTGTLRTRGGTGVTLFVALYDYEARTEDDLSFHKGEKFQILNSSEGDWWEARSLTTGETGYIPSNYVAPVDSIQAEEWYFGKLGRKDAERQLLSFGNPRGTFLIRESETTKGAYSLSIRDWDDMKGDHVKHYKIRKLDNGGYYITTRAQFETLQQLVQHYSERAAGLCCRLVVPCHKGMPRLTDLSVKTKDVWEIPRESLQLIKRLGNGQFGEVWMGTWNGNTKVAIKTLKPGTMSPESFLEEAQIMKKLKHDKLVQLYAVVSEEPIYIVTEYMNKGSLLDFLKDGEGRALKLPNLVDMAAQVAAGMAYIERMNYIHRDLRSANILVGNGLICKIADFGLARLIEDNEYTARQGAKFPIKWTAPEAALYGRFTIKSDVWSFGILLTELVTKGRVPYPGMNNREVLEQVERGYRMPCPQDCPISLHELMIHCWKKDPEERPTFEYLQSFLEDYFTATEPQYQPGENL
row,Sequence,phosphorylation enrichment
1,GKSHIYFWTLD [EML2_Y230_E235D],0.514
2,KWTVDYLGQVG [TYW5_Y48_S50G],0.46
3,LNCIYYKDQTG [RS1_Y166_W163C],2.93
4,GMSQAYSFSQR [DES_Y5_S7F],0.389
5,ADSLRYIYPKL [EIF2B3_Y92],0.332
6,FQLENYCNGGG [INS_Y108_YF],0.878
7,GIKAAYEAELG [LMNA_Y81],0.597
8,FSMGCYEIFLG [HMGCL_Y198_S201Y_YF],5.89
9,TYEPNYGTVKQ [RAPGEF6_Y1447],2.21
10,MDNQEYKDAYK [BRDT_Y331],0.417
11,DYSLKYPTDIP [APC_Y1183_A1184P],0.534
12,AFEQQYSPIPR [NOX1_Y373],0.624
13,KELANYYKLHH [AK7_Y390],0.453
14,SVDRDYVLKSA [HTATIP2_Y111_R106S],0.439
15,NNPAYYVLEGV [INPPL1_Y987],1.65
16,SSDPDYRAAVD [GLB1_Y154_L155R],0.449
17,TNIKRYHIAKV [HARS1_Y150],0.379

row,Sequence,phosphorylation enrichment
1,MKKKIYAMGGG [GAN_Y424],0.297
2,VQDPAYLRDID [OPRK1_Y369],0.425
3,DCAAIYGNEPD [AKR1A1_Y50_E55D],1.02
4,NWGSPYKSDGC [ZNF347_Y261_N264D],0.4
5,SRNKPYISWPS [CDC42BPB_Y1638],0.436
6,QKDIFYGLRSL [IGSF10_Y126_T124I],0.783
7,LENSTYQYICV [CRB1_Y760_R764C],4.96
8,ASRKYYAMKIL [AKT3_Y174_G171R],0.348
9,VLTPKYRGGGG [HBA1_Y141_S139P],0.363
10,SLNEEYTKNKT [MSH2_Y563],0.325
11,DWRQEYVLNES [TGM1_Y267],0.593
12,EAESWYQTKYE [KRT75_Y342],0.546
13,HNMPIYEGYAL [ACTA1_Y168_V165M],13.1
14,FFNSEYGELSE [FLT4_Y1337_YF],1.19
15,QFPDIYAREEV [CRX_Y67_V66I_YF],0.959
16,NTADYYDLYGG [PTPN11_Y63_G60A],6.09
